Legend:
Assay in all cases: holdup assay
Design in all cases: key: below the threshold = too weak to quantify, mostly under pKd 3.1 to 4
[1] = biological target: T1, RHPN1, Q8TCX5
T1 sequence (Q8TCX5 508-602, limits assumed, looked up): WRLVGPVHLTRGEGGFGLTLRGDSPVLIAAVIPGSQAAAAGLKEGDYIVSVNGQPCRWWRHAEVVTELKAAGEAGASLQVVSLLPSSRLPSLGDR

[2] = biological target: Inadl_4, Q8NI35
[3] = biological target: T2, NHERF3_1, Q5T2W1
T2 sequence (Q5T2W1 4-100, limits assumed, looked up): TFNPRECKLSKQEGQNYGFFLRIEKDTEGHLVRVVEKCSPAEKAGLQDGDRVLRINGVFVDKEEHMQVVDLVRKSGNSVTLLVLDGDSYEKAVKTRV

[4] = biological target: T3, APBA2_1, Q99767
T3 sequence (Q99767 563-664, limits assumed, looked up): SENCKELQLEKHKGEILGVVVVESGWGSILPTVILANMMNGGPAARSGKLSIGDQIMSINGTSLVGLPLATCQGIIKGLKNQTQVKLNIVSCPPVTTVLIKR

[5] = biological target: DLG1_1, Q12959
[6] = biological target: FRMPD2_3, Q68DX3
Sequence of FRMPD2_3, Q68DX3 (Q68DX3 1073-1166): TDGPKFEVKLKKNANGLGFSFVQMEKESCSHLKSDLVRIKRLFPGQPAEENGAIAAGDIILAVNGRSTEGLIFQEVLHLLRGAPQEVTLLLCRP

[7] = biological target: DLG4_1, P78352
Sequence of DLG4_1, P78352 (P78352 62-152): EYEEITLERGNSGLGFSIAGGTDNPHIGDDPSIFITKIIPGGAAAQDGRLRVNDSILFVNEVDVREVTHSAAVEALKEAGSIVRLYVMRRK

[8] = biological target: T4, DVL3, Q92997
T4 sequence (Q92997 244-331, limits assumed, looked up): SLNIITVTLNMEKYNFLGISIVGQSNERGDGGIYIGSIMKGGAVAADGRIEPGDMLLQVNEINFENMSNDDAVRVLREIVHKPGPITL

[9] = biological target: MAGI1_2, Q96QZ7
Sequence of MAGI1_2, Q96QZ7 (Q96QZ7 456-580): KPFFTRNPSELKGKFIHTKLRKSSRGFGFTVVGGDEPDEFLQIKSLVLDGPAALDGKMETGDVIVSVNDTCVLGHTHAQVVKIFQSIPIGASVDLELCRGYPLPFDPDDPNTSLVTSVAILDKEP

[10] = biological target: T5, HTRA4, P83105
T5 sequence (P83105 378-476, limits assumed, looked up): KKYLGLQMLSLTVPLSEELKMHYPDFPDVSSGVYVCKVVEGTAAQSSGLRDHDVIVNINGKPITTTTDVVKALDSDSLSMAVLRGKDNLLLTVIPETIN

[11] = biological target: T6, SNTG1, Q9NSN8
T6 sequence (Q9NSN8 52-150, limits assumed, looked up): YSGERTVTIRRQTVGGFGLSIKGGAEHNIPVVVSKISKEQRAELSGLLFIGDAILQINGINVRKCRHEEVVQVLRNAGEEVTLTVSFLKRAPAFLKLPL

[12] = biological target: FRMPD4, Q14CM0
Sequence of FRMPD4, Q14CM0 (Q14CM0 67-160): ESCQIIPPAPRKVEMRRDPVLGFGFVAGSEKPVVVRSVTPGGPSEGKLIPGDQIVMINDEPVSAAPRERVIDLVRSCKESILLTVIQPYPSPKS

[13] = biological target: Inadl_6, Q8NI35
Sequence of Inadl_6, Q8NI35 (Q8NI35 1058-1167): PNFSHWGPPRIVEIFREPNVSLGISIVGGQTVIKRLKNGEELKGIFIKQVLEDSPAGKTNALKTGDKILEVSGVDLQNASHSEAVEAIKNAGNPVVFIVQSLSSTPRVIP

[14] = biological target: T7, ARHGEF11, O15085
T7 sequence (O15085 42-136, limits assumed, looked up): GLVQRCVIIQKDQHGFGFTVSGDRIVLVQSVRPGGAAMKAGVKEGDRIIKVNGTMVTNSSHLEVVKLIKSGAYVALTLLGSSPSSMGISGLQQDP

[15] = biological target: Inadl_2, Q8NI35
Sequence of Inadl_2, Q8NI35 (Q8NI35 238-335): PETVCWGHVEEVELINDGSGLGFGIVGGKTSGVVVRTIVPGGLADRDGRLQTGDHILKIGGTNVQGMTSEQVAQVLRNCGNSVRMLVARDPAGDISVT

[16] = biological target: Inadl_5, Q8NI35
Sequence of Inadl_5, Q8NI35 (Q8NI35 673-780): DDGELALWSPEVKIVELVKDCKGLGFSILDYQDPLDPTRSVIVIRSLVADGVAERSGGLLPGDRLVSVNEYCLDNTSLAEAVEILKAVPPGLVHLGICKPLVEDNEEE

[17] = biological target: GRIP2_5, Q9C0E4
Sequence of GRIP2_5, Q9C0E4 (Q9C0E4 544-642): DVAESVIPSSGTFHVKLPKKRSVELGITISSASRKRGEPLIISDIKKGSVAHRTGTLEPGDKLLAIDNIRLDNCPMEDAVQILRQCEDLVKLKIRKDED

[18] = biological target: MAGI2_4, Q86UL8
Sequence of MAGI2_4, Q86UL8 (Q86UL8 772-865): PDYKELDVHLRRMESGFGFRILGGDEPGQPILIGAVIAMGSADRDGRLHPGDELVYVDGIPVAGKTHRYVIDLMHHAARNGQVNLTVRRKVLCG

[19] = biological target: MAGI1_1, Q96QZ7
Sequence of MAGI1_1, Q96QZ7 (Q96QZ7 1-106): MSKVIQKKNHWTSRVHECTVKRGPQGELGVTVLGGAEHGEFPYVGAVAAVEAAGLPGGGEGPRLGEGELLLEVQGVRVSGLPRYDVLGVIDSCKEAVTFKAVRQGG

[20] = biological target: MAGI2_6, Q86UL8
Sequence of MAGI2_6, Q86UL8 (Q86UL8 1141-1229): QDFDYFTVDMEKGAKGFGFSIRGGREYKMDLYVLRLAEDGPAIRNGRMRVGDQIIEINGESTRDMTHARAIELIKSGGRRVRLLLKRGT

[21] = biological target: T8, LNX2_2, Q8N448
T8 sequence (Q8N448 334-432, limits assumed, looked up): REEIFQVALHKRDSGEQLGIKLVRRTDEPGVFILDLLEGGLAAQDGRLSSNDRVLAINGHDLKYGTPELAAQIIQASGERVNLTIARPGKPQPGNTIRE

[22] = biological target: TJP2_1, Q9UDY2
Sequence of TJP2_1, Q9UDY2 (Q9UDY2 24-128): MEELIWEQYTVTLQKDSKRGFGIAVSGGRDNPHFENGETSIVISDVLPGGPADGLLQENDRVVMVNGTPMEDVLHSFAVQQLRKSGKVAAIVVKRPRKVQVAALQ

[23] = biological target: PDZRN4_1, Q6ZMN7
Sequence of PDZRN4_1, Q6ZMN7 (Q6ZMN7 213-318): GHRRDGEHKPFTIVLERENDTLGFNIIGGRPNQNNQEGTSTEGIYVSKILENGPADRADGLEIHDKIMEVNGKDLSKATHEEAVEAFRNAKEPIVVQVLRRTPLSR

[24] = biological target: T9, GRIP1_3, Q9Y3R0
T9 sequence (Q9Y3R0 247-346, limits assumed, looked up): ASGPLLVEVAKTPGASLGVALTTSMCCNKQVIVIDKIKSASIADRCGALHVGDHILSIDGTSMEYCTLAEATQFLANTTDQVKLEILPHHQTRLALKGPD

[25] = biological target: T10, GRIP1_5, Q9Y3R0
T10 sequence (Q9Y3R0 568-668, limits assumed, looked up): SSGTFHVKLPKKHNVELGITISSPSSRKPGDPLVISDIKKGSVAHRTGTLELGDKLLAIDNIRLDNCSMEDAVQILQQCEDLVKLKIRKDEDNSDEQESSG

[26] = biological target: T11, DLG3_1, Q92796
T11 sequence (Q92796 125-227, limits assumed, looked up): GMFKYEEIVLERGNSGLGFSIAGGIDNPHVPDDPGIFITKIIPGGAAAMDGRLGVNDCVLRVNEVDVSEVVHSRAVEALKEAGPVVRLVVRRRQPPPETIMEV

[27] = biological target: LDB3, O75112
Sequence of LDB3, O75112 (O75112 1-94): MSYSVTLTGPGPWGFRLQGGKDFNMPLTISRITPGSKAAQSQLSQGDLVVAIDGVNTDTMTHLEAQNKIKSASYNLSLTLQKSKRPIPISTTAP

[28] = plain residues with an end cap or a label only (N-terminal biotin on a linker: ahx)
[29] = plain residues with an end cap or a label only (N-terminal biotin on a linker: ttds)

Sequence of Inadl_4, Q8NI35 (Q8NI35 547-651): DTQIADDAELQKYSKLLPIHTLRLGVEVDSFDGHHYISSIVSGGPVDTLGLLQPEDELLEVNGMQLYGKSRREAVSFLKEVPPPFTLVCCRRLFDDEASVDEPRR

Binder: GYDWGPATDL [TJP3, O95049]
- pKd [1, 28]: 5.36
- pKd [2, 28]: below the threshold
- pKd [3, 28]: below the threshold
- pKd [4, 28]: below the threshold
- pKd [5, 28]: below the threshold
- pKd [6, 28]: below the threshold
- pKd [7, 28]: 3.53
- pKd [8, 28]: below the threshold
- pKd [9, 28]: below the threshold
- pKd [10, 28]: below the threshold
- pKd [11, 28]: 4.33
- pKd [12, 28]: 3.83
- pKd [13, 28]: 4.8
- pKd [14, 28]: 4.6
- pKd [15, 28]: below the threshold
- pKd [16, 28]: below the threshold
- pKd [17, 28]: below the threshold
- pKd [18, 28]: 3.49
- pKd [19, 28]: below the threshold
- pKd [20, 28]: 5.24
- pKd [21, 28]: below the threshold
- pKd [22, 28]: below the threshold
- pKd [23, 28]: below the threshold
- pKd [24, 28]: below the threshold
- pKd [25, 28]: below the threshold
- pKd [26, 28]: 3.48
- pKd [27, 28]: 3.97

Binder: RLPKIKETTV [FRMPD4, Q14CM0]
- pKd [1, 29]: 4.19
- pKd [2, 29]: below the threshold
- pKd [3, 29]: below the threshold
- pKd [4, 29]: below the threshold
- pKd [5, 29]: 5.12
- pKd [6, 29]: below the threshold
- pKd [7, 29]: 5.05
- pKd [8, 29]: 3.43
- pKd [9, 29]: 4.49
- pKd [10, 29]: below the threshold
- pKd [11, 29]: 5.02
- pKd [12, 29]: 3.4
- pKd [13, 29]: below the threshold
- pKd [14, 29]: 3.71
- pKd [15, 29]: below the threshold
- pKd [16, 29]: below the threshold
- pKd [17, 29]: below the threshold
- pKd [18, 29]: 4.24
- pKd [19, 29]: below the threshold
- pKd [20, 29]: 3.98
- pKd [21, 29]: 4.47
- pKd [22, 29]: below the threshold
- pKd [23, 29]: 4.67
- pKd [24, 29]: below the threshold
- pKd [25, 29]: below the threshold
- pKd [26, 29]: 4.51
- pKd [27, 29]: below the threshold

— paper PMC9482650, “Quantitative fragmentomics allow affinity mapping of interactomes” (Nature Communications, 2022)
